{"source": "paper PMC2064056", "key": {"[1]": {"biological_target": "LF1p (aa 1-330), GAL4 two-hybrid fusion (C. reinhardtii) (UniProt Q7XJJ6)", "test": "two-hybrid"}, "[2]": {"biological_target": "LF2p, full-length coding region, GAL4 two-hybrid fusion (C. reinhardtii) (UniProt A0MM70)", "test": "two-hybrid"}}}
{"substance": "LF3p, full-length coding region, GAL4 two-hybrid fusion (natural protein)", "values": [{"measurement": "β-galactosidase (Miller units)", "setting": "[1]", "result": 61.1, "unit": "Miller units"}, {"measurement": "β-galactosidase (Miller units)", "setting": "[2]", "result": 15.8, "unit": "Miller units"}]}
